21 molecules from patent US20200377595A1 (Chugai, published 2020) can be followed below.

The chains are these.
B1: CE115HA340 one-arm antibody (antibody, human IgG1, kappa, L234A L235A, N297A)
VH: QVQLVESGGGLVQPGRSLRLSCAASGFTFSNAWMHWVRQAPGKGLEWVAQIKDKSNNYATYYAESVKGRFTISRDDSKNSIYLQMNSLKTEDTAVYYCRYVHYAAYYGVDAWGQGTTVTVSSASTKGPSVFPLAPSSKSTSGGTAALGCLVKDYFPEPVTVSWNSGALTSGVHTFPAVLQSSGLYSLSSVVTVPSSSLGTQTYICNVNHKPSNTKVDKKVEPKSCDKTHTCPPCPAPEAAGGPSVFLFPPKPKDTLMISRTPEVTCVVVDVSHEDPEVKFNWYVDGVEVHNAKTKPREEQYASTYRVVSVLTVLHQDWLNGKEYKCKVSNKALPAPIEKTISKAKGQPREPQVYTLPPSRCELTKNQVSLSCAVKGFYPSDIAVEWESNGQPENNYKTTPPVLDSDGSFFLVSKLTVDKSRWQQGNVFSCSVMHEALHNHYTQKSLSLSPDYKDDDDK
chain: EPKSSDKTHTCPPCPAPELLGGPSVFLFPPKPKDTLMISRTPEVTCVVVDVSHEDPEVKFNWYVDGVEVHNAKTKPREEQYNSTYRVVSVLTVLHQDWLNGKEYKCKVSNKALPAPIEKTISKAKGQPREPQVCTLPPSRDELTKNQVSLWCLVKGFYPSDIAVEWESNGQPENNYKTTPPVLDSDGSFFLYSKLTVDKSRWQQGNVFSCSVMHEALHNRYTQKSLSLSP
light: DIVMTQSPLSLPVTPGEPASISCRSSQSLVHSNRNTYLHWYQQKPGQAPRLLIYKVSNRFSGVPDRFSGSGSGTDFTLKISRVEAEDVGVYYCGQGTQVPYTFGQGTKLEIKRTVAAPSVFIFPPSDEQLKSGTASVVCLLNNFYPREAKVQWKVDNALQSGNSQESVTEQDSKDSTYSLSSTLTLSKADYEKHKVYACEVTHQGLSSPVTKSFNRGEC
notes: one-arm antibody
B2: NNS6f64 (antibody)
chain 1: QVQLVESGGGLVQPGRSLRLSCAASGFTFSNAWMHWVRQAPGKGLEWVAQIKDKSNNYATYYAESVKGRFTISRDDSKNSIYLQMNSLKTEDTAVYYCRYVHYAALVSLTVYYGVDAWGQGTTVTVSSASTKGPSVFPLAPSSKSTSGGTAALGCLVKDYFPEPVTVSWNSGALTSGVHTFPAVLQSSGLYSLSSVVTVPSSSLGTQTYICNVNHKPSNTKVDKKVEPKSCDKTHTCPPCPAPEAAGGPSVFLFPPKPKDTLMISRTPEVTCVVVDVSHEDPEVKFNWYVDGVEVHNAKTKPREEQYASTYRVVSVLTVLHQDWLNGKEYKCKVSNKALPAPIEKTISKAKGQPREPQVYTLPPSRCELTKNQVSLSCAVKGFYPSDIAVEWESNGQPENNYKTTPPVLDSDGSFFLVSKLTVDKSRWQQGNVFSCSVMHEALHNHYTQKSLSLSPDYKDDDDK
chain 2: B1 chain
chain 3: B1 light
B3: NNS6f73 (antibody)
chain 1: B2 chain 1 with L106W, S108V, L109G, T110V, V111R
chain 2: B1 chain
chain 3: B1 light
B4: NNS6f68 (antibody)
chain 1: B2 chain 1 with L106V, V107E, S108W, L109G, T110R, V111W
chain 2: B1 chain
chain 3: B1 light
B5: NNS6f72 (antibody)
chain 1: B2 chain 1 with L106E, V107G, S108I, L109W, T110W, V111G
chain 2: B1 chain
chain 3: B1 light
B6: NHS6f29 (antibody)
chain 1: B2 chain 1 with L106I, V107Y, S108Y, L109P, V111N
chain 2: B1 chain
chain 3: B1 light
B7: NNS6f67 (antibody)
chain 1: B2 chain 1 with L106G, V107L, S108L, L109R, T110A, V111A
chain 2: B1 chain
chain 3: B1 light
B8: NNS6f58 (antibody)
chain 1: B2 chain 1 with L106S, V107W, S108Q, L109V, T110S, V111R
chain 2: B1 chain
chain 3: B1 light
B9: NNS6f56 (antibody)
chain 1: B2 chain 1 with L106R, V107E, S108A, L109T, T110R, V111W
chain 2: B1 chain
chain 3: B1 light
B10: NNS6f51 (antibody)
chain 1: B2 chain 1 with L106G, V107F, S108L, L109V, T110L, V111W
chain 2: B1 chain
chain 3: B1 light
B11: NNS6f63 (antibody)
chain 1: B2 chain 1 with L106G, V107G, S108G, L109G, T110W
chain 2: B1 chain
chain 3: B1 light
B12: NNS6f55 (antibody)
chain 1: B2 chain 1 with L106A, V107G, S108R, L109W, T110L, V111A
chain 2: B1 chain
chain 3: B1 light
B13: NHS6f52 (antibody)
chain 1: B2 chain 1 with L106Y, V107M, S108L, L109G, T110L, V111G
chain 2: B1 chain
chain 3: B1 light
B14: NNS6f54 (antibody)
chain 1: B2 chain 1 with L106F, V107E, S108W, L109V, T110G, V111W
chain 2: B1 chain
chain 3: B1 light
B15: NNS6f71 (antibody)
chain 1: B2 chain 1 with L106G, V107W, S108V, T110G, V111S
chain 2: B1 chain
chain 3: B1 light
B16: NNS6f27 (antibody)
chain 1: B2 chain 1 with L106V, V107W, S108G, L109S, T110V, V111W
chain 2: B1 chain
chain 3: B1 light
B17: NNS6f59 (antibody)
chain 1: B2 chain 1 with V107L, S108V, L109Q, T110E, V111G
chain 2: B1 chain
chain 3: B1 light
B18: NNS6f62 (antibody)
chain 1: B2 chain 1 with L106N, V107G, S108G, L109T, T110R, V111H
chain 2: B1 chain
chain 3: B1 light
B19: NHS6f50 (antibody)
chain 1: B2 chain 1 with V107T, S108G, L109G, T110L, V111G
chain 2: B1 chain
chain 3: B1 light
B20: NNS6f47 (antibody)
chain 1: B2 chain 1 with L106H, V107F, S108M, L109W, T110W, V111G
chain 2: B1 chain
chain 3: B1 light
B21: NHS6f17 (antibody)
chain 1: B2 chain 1 with L106W, V107G, S108E, L109G, T110V
chain 2: B1 chain
chain 3: B1 light

Numbering of substitutions follows the chain as printed. Several values for one entry are separate records, joined by “and”; a condition that tells them apart may be missing. Equal entries are not always repeated.

The assay deals with biotinylated CD3 epsilon epitope peptide. The experiment in a line: SPR, one-arm Ab. A general note: SPR reads the build-up and loss of mass on a sensor chip optically.
B1: the Kd – broadly, the constant that tells how readily two partners part at equilibrium – was 20 nM and 27 nM.
In turn, B2 gave a Kd of 78 nM.
In the case of B3 it was 26 nM.
In the case of B4 it was 45 nM; in that of B5, 150 nM.
Take B6: the Kd was found to be 90 nM.
In the case of B7 it was 36 nM; in that of B8, 44 nM; in that of B9, 21 nM.
Turning to B10, the dissociation constant Kd was determined as 31 nM.
In the case of B11 it was 69 nM; in that of B12, 31 nM; in that of B13, 52 nM.
In the case of B14 it was 29 nM.
In the case of B15 it was 51 nM; in that of B16, 38 nM.
B17: the Kd is 200 nM.
In the case of B18 it was 61 nM; in that of B19, 71 nM.
In the case of B20 it was 31 nM; in that of B21, 74 nM.
